# From the RNAGym collection of RNA variant scans (doi:10.7554/elife.80360)
# B1: HDV Ribozyme (parent)
# chain: GGCCGGCAUGGUCCCAGCCUCCUCGCUGGCGCCGGCUGGGCAACAUUCCGAGGGGACCGUCCCCUCGGUAAUGGCGAAUGGGACCCA
# Variants of: B1
# Experiment: self-cleavage, relative activity (ratio to wild type); higher = more cleavage; co-transcriptional
row,Variant,self-cleavage
1,GGCCGGCAUGGUCCCAGCCUCCUCGCUGGCGCCGGCUGGGUAACAUUCCGAGGGGACCGUCCCCUUGGUAAUGGCGAAUGGGACCCA [C41U C66U],1
2,GGCCGGCAUGGUCCCAGCCUCCUCGCUGGCGCCGGCUGGGUAACAUUCCGAGGGGACCGUCCCCUAGGUAAUGGCGAAUGGGACCCA [C41U C66A],0.719
3,GGCCGGCAUGGUCCCAGCCUCCUCGCUGGCGCCGGCUGGGUAAUAUUCCGAGGGGACCGUCCCCUCGGUAAUGGCGAAUGGGACCCA [C41U C44U],0.516
4,GGCCGGCAUGGUCCCAGCCUCCUCGCUGGCGCCGGCUGGGUAACAUUCCGAGGGGACCGUCCCCUCGGUAAUGGCGAAUGGGAACCA [C41U C84A],0.78
5,GGCCGGCAUGGUCCCAGCCUCCUCGCUGGCGCCGGCUGGGUAACAUUACGAGGGGACCGUCCCCUCGGUAAUGGCGAAUGGGACCCA [C41U C48A],1.07
6,GGCCGGCAUGGUCCCAGCCUCCUCGCUGGCGCCGGCUGGGUAACAUUCCGAGGGGACCGUCCCCUCGGUAAUGGCGAAUGGGCCCCA [C41U A83C],0.332
7,GGCCGGCAUGGUCCCAGCCUCCUCGCUGGCGCCGGCUGGGUAACAUUCCGAGGGGACCGUCCCCUCGGUAAUGGCGAAUGGGUCCCA [C41U A83U],0.583
8,GGCCGGCAUGGUCCCAGCCUCCUCGCUGGCGCCGGCUGGGUAACAUUCCGAGGGGACGGUCCCCUCGGUAAUGGCGAAUGGGACCCA [C41U C58G],0.889
9,GGCCGGCAUGGUCCCAGCCUCCUCGCUGGCGCCGGCUGGGUAACAUUCCGAGGGGACAGUCCCCUCGGUAAUGGCGAAUGGGACCCA [C41U C58A],0.962
10,GGCCGGCAUGGUCCCAGCCUCCUCGCUGGCGCCGGCUGGGUAACAUUCCGAGGGGAUCGUCCCCUCGGUAAUGGCGAAUGGGACCCA [C41U C57U],1.12
11,GGCCGGCAUGGUCCCAGCCUCCUCGCUGGCGCCGGCUGGGUAACAUUCCGAGGGGACCGUCCCCUCGGUAAUGGCGAAUGGGACCCG [C41U A87G],0.961
12,GGCCGGCAUGGUCCCAGCCUCCUCGCUGGCGCCGGCUGGGUAACAUUCCGAGGGGACCGUCCCCUCGGUAAUGGCGAAUGGGACCCC [C41U A87C],1.09
13,GGCCGGCAUGGUCCCAGCCUCCUCGCUGGCGCCGGCUGGGUAACAUUCCGAGGGGUCCGUCCCCUCGGUAAUGGCGAAUGGGACCCA [C41U A56U],1.09
14,GGCCGGCAUGGUCCCAGCCUCCUCGCUGGCGCCGGCUGGGUAACAUUCCGAGGGGGCCGUCCCCUCGGUAAUGGCGAAUGGGACCCA [C41U A56G],0.7
15,GGCCGGCAUGGUCCCAGCCUCCUCGCUGGCGCCGGCUGGGUAACAUUCCGAGGGGACCGUCACCUCGGUAAUGGCGAAUGGGACCCA [C41U C62A],1.02
16,GGCCGGCAUGGUCCCAGCCUCCUCGCUGGCGCCGGCUGGGUAACAUUCCGAGGGGACCGUCCCCUCGGUAAUGGCGCAUGGGACCCA [C41U A77C],0.341

row,Variant,self-cleavage
1,GGCCGGCAUGGUCCCAGCCUCCUCGCUGGCGCCGGCUGGGUAACAUUCCGAGGGGACCGUCCCCUCGGUAAUGGCGUAUGGGACCCA [C41U A77U],0.475
2,GGCCGGCAUGGUCCCAGCCUCCUCGCUGGCGCCGGCUGGGUAACAUUCCGAGGGGACCGUCCCCUCGGUAAUGGCGGAUGGGACCCA [C41U A77G],0.95
3,GGCCGGCAUGGUCCCAGCCUCCUCGCUGGCGCCGGCUGGGUAACAUUCCGAGGGGACCGUCCCCUCGGUAAUGGUGAAUGGGACCCA [C41U C75U],0.249
4,GGCCGGCAUGGUCCCAGCCUCCUCGCUGGCGCCGGCUGGGUAACAUUCCGAGGGGACCGUCCCCUCGGUUAUGGCGAAUGGGACCCA [C41U A70U],0.936
5,GGCCGGCAUGGUCCCAGCCUCCUCGCUGGCGCCGGCUGGGUAACAUUCCGGGGGGACCGUCCCCUCGGUAAUGGCGAAUGGGACCCA [C41U A51G],0.914
6,GGCCGGCAUGGUCCCAGCCUCCUCGCUGGCGCCGGCUGGGUAACAUUCCGAGGGGACCGUCCCCUCGGUAUUGGCGAAUGGGACCCA [C41U A71U],0.897
7,GGCCGGCAUGGUCCCAGCCUCCUCGCUGGCGCCGGCUGGGUAACAUUCCGAGGGGACCGUCCCCUCGGUAAUGGCGAAUGGGACCGA [C41U C86G],0.784
8,GGCCGGCAUGGUCCCAGCCUCCUCGCUGGCGCCGGCUGGGUAACAUUCCGAGGGGACCGUCCCCUCGGUAAUGGCGAAUGGGACCAA [C41U C86A],1.04
9,GGCCGGCAUGGUCCCAGCCUCCUCGCUGGCGCCGGCUGGGUAACAUUCCGAGGGGACCGUCCCCUCGGUAAUGGCGACUGGGACCCA [C41U A78C],0.178
10,GGCCGGCAUGGUCCCAGCCUCCUCGCUGGCGCCGGCUGGGUAACAUUCCGAGGGGACCGUCCCCUCGGUAAUGGCGAUUGGGACCCA [C41U A78U],0.199
11,GGCCGGCAUGGUCCCAGCCUCCUCGCUGGCGCCGGCUGGGUAACAUUCCGAGGGGACCGUCCGCUCGGUAAUGGCGAAUGGGACCCA [C41U C63G],0.739
12,GGCCGGCAUGGUCCCAGCCUCCUCGCUGGCGCCGGCUGGGUAACAUUCCGAGGGGACCGUCCCCUCGGUAAUGGCGAAUGGGACUCA [C41U C85U],0.845
13,GGCCGGCAUGGUCCCAGCCUCCUCGCUGGCGCCGGCUGGGUAACAUUCUGAGGGGACCGUCCCCUCGGUAAUGGCGAAUGGGACCCA [C41U C49U],0.749
14,GGCCGGCAUGGUCCCAGCCUCCUCGCUGGCGCCGGCUGGGUAACAUUCCGAGGGGACCGUUCCCUCGGUAAUGGCGAAUGGGACCCA [C41U C61U],0.946
15,GGCCGGCAUGGUCCCAGCCUCCUCGCUGGCGCCGGCUGGGUAACAUUCCAAGGGGACCGUCCCCUCGGUAAUGGCGAAUGGGACCCA [C41U G50A],1.01
16,GGCCGGCAUGGUCCCAGCCUCCUCGCUGGCGCCGGCUGGGUAACAUUCCCAGGGGACCGUCCCCUCGGUAAUGGCGAAUGGGACCCA [C41U G50C],0.67
